We go through 3 molecules from US8975044B2, “Polynucleotides encoding for frizzled-binding agents and uses thereof” (OncoMed Pharmaceuticals, Inc., priority 2008, dated 2015).

Usually Kd stands for the equilibrium constant for the complex coming apart. Usually IC50 stands for the point on the concentration scale where inhibition reaches its midpoint. Low values mean inhibition by little substance, high ones a need for much substance.

One test deals with T1, FZD8 (Homo sapiens, UniProt Q9H461).
T1 construct: Fc
T1 sequence (Q9H461 28-157 limits assumed): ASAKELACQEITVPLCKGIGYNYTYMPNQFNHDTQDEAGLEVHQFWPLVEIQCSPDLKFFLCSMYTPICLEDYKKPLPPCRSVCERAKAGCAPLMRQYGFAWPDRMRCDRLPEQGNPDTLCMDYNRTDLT
Kind of test: Biacore affinity to recombinant Fzd Fc protein. Format: binding. The settings on record: IgG antibody; Fzd Fc immobilized on CM5 Biacore chip. The protocol: (§1) The KDs of 18R8 and 18R5 antibodies were determined using the Biacore 2000 system from Biacore Lifescience (GE Healthcare). Specifically, purified anti-Fzd7 antibodies were serially diluted in 2-fold increments from 100 to 0.78 nM in HBS-P (0.01 M HEPES pH 7.4, 0.15 M NaCl, 0.005% v/v Surfactant P20). Each dilution was tested against recombinant Fzd Fc proteins immobilized onto a CM5 Biacore chip. The association and dissociation rates were measured and KD values determined using the Biaevaluation software program (Table 5, below).
On the technique in general: Surface plasmon resonance follows binding to a sensor surface in real time, without labels.

The subject of the next test is Wnt signaling. Kind of test: Inhibition of Wnt3a-induced Super Top Flash reporter activity in STF-293 cells. It is filed as cell-based, human. The settings on record: for IC50: Wnt3a-conditioned medium, 20-0.0003 μg/ml, triplicate. How it is done: STF cells are Human Embryonic Kidney (HEK)-293 cells stably transfected with the Super Top Flash (STF) reporter cassette in which the expression of the Luciferase (Luc) reporter gene is regulated by multiple copies of the TCF binding site upstream of a minimal promoter. A low basal Luc expression can be induced 30-60 fold in response to Wnt3a, providing a large window to assess the inhibitory activity of the anti-Fzd Abs.
To assess the mAbs, STF-293 cells were grown in DMEM-10% FBS. On day 1, 10,000 cells were plated per well in 96-well Optical Bottom White plates (Nunc #165306). The cells were incubated O.N. at 37° C. and 5% CO2. On day 2, the Abs to be tested were diluted to a final concentration of […] using culture medium. Seven 5-fold serial dilutions were performed. The STF-293 cells culture medium was replaced with a mixture containing 50 μA Ab dilution, 25 μA Wnt3a-conditioned medium from Wnt3a stable L-cells and 25 μA DMEM-10% FBS. For each Ab, the final concentrations tested were 20, 4, 0.8, 0.16, 0.03, 0.006, 0.0013, 0.0003 μg/ml. Each Ab concentration was tested in triplicate. A human anti-hapten Ab, LZ1, was used as negative control Ab. A non-Wnt3a-conditioned medium from parental L-cells was used as negative control inducer. The plates were returned to the incubator. Luciferase activity was measured on day 3, using Promega Steady Glo kit (VWR #PAE2550-A) according to the manufacturer specifications. The results were expressed in photons per sec. GraphPad Prism software was used to graph and analyze the data. Luciferase activities were plotted as a function of Ab concentration to establish dose-response curves. A non-linear regression was applied to the numbers to fit the curve and calculate IC50s.

For the next test, the system named is Muc16. Kind of test: Muc16 immunohistochemistry on treated OMP-PN13 tumors. Format: in vivo, NOD/SCID mice. The following applies: 3 doses of 10 mg/kg IP over 12 days; vs LZ1. How it is done:
Frozen OMP-PN13 tumor cells that have been passaged twice in mice were obtained from Oncomed's tumor bank. They were thawed and injected subcutaneously into the left flank of NOD/SCID mice immediately following thawing. ˜ 25,000 viable cells were injected per animal. The mice were monitored weekly for tumor growth. After their onset, the size of the tumors was measured once weekly by caliper. 200-300 mm^3 tumor-bearing mice were dispatched in treatment groups that each contained 5 animals. […] Ab treatment was initiated the day after randomization. LZ1 was used as the negative control Ab. 3 doses of 10 mg/kg of Ab were administered via intra-peritoneal injection over a 12-day period. Mice were euthanized 24 hours after the last injection. Tumor, duodenum and liver were harvested.
Tumor tissues were fixed in formalin for paraffin embedding and sectioning. Muc16 detection was performed by immunohistochemical (1HC) to monitor the appearance of Mucin-producing cells. Mucins are specific for a subtype of differentiated cells in the pancreas, and as such are used as differentiation markers in the tumor model.
Formalin-fixed, paraffin-embedded (FFPE) sections were de-parrafinized. The slides were first de-parrafinized by sequential treatment with xylene twice for 5 minutes each. […]

For the next test, the target named is FZD5. Kind of test: Biacore affinity to recombinant Fzd Fc protein. It is filed as binding, human. The settings on record: IgG antibody; Fzd Fc immobilized on CM5 Biacore chip. How it is done: as §1
In a further test the target is FZD1. Nature of the test: Biacore affinity to recombinant Fzd Fc protein. It is filed as binding, human. The following applies: IgG antibody; Fzd Fc immobilized on CM5 Biacore chip. The protocol: as §1
For a further test, the target named is FZD2. Nature of the test: Biacore affinity to recombinant Fzd Fc protein. The following applies: IgG antibody; Fzd Fc immobilized on CM5 Biacore chip. Format: binding, human. How it is done: as §1

FZD5, sequence (Q13467 27-150 limits assumed): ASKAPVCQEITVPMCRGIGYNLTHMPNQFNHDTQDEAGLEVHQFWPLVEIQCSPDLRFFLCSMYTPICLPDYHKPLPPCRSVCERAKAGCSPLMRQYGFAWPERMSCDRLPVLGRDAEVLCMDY

B1: 18R5: human anti-FZD antibody; VH SEQ ID NO:10 (as 18R8), VL SEQ ID NO:14; binds FZD1, 2, 5, 7, 8 (antibody, V domains shown)
VH: EVQLVESGGGLVQPGGSLRLSCAASGFTFSHYTLSWVRQAPGKGLEWVSVISGDGSYTYYADSVKGRFTISSDNSKNTLYLQMNSLRAEDTAVYYCARNFIKYVFANWGQGTLVTVSS
VL: DIELTQPPSVSVAPGQTARISCSGDNIGSFYVHWYQQKPGQAPVLVIYDKSNRPSGIPERFSGSNSGNTATLTISGTQAEDEADYYCQSYANTLSLVFGGGTKLTVLG
modifications: 18R5/18R8 heavy chain variable region (VH); 18R5 light chain variable region (VL)
B1: the Kd was 5.8 nM in the test with FZD8, 1.9 nM at FZD5, 4.6 nM at FZD1 and 3.3 nM at FZD2. This molecule also registered an IC50 in the test with Wnt signaling of 2.73 nM. In addition, the Muc16 staining result in the test with Muc16 was “higher levels of staining”.

B2: 18R8: human anti-FZD antibody from phage display; VH SEQ ID NO:10, VL SEQ ID NO:12; binds FZD1, 2, 5, 7, 8 (antibody, V domains shown)
VH: B1 VH
VL: DIELTQPPSVSVAPGQTARISCSGDKLGKKYASWYQQKPGQAPVLVIYEKDNRPSGIPERFSGSNSGNTATLTISGTQAEDEADYYCSSFAGNSLEVFGGGTKLTVLG
modifications: 18R5/18R8 heavy chain variable region (VH); 18R8 light chain variable region (VL)
As to B2, the Kd with FZD8 came out at 29.3 nM; at FZD5, 4.2 nM; on FZD1, 15.6 nM; at FZD2, 6.2 nM.

B3: 44R24: anti-FZD5/8 IgG antibody, VH SEQ ID NO:85, VL SEQ ID NO:86; ATCC deposit no. PTA-10311 (antibody, V domains shown)
VH: EVQLVESGGGLVQPGGSLRLSCAASGFTFSSYYITWVRQAPGKGLEWVSTISYSSSNTYYADSVKGRFTISRDNSKNTLYLQMNSLRAEDTAVYYCARSIVFDYWGQGTLVTVSS
VL: DIELTQPPSVSVAPGQTARISCSGDALGNRYVYWYQQKPGQAPVLVIPSGIPERFSGSNSGNTATLTISGTQAEDEADYYCGSWDTRPYPKYVFGGGTKLTVLG
modifications: 44R24 VH; 44R24 VL
notes: ATCC deposit no; PTA-10311
B3: in the test on Wnt signaling, the “IC50 relative to 18R5's” value is on record as 13 fold and the IC50 came out at 34.4 nM. Moreover, the Muc16 staining result in the test on Muc16 is “slightly higher than in the LZ1-treated tumors”.
